The source of these data is article PMC9039505, “Ethylene precisely regulates anthocyanin synthesis in apple via a module comprising MdEIL1, MdMYB1, and MdMYB17”.

Data set [1] concerns the target T1, MdMYB17 (apple, UniProt D9ZJ54 1-196).
T1 sequence: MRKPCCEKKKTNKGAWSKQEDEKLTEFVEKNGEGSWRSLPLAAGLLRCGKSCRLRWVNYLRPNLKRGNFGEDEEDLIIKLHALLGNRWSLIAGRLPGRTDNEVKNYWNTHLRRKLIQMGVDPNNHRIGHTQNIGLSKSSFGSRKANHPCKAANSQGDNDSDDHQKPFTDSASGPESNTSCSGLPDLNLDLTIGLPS
Nature of the data set: EMSA; LightShift Chemiluminescent EMSA kit; buffer, salt, pH and temperature not stated; cold competitor 200-300-fold. Conditions: protein: recombinant; tags: His (pET-32a fusion); label: biotin; blunt.

In data set [2] the target is T1, MdMYB17. Kind of data set: competition; unlabeled mutant competitor; LightShift Chemiluminescent EMSA kit; buffer, salt, pH and temperature not stated; cold competitor 200-300-fold. Conditions: protein: recombinant; tags: His (pET-32a fusion); blunt.
For another data set, the target named is T2, MdMYB1 (apple, UniProt A0SQ35 1-243).
T2 sequence: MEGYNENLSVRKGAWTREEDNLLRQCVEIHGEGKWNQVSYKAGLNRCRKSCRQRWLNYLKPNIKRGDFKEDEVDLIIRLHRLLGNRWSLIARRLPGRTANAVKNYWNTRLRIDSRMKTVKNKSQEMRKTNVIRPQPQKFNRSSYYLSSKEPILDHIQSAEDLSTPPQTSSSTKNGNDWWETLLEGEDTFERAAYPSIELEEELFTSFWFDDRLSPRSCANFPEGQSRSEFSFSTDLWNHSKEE
Nature of the data set: EMSA; LightShift Chemiluminescent EMSA kit; buffer, salt, pH and temperature not stated; cold competitor 200-300-fold. Particulars: protein: recombinant; tags: His (pET-32a fusion); label: biotin; blunt.

The target of another data set is T3, MdEIL1 (apple, UniProt D5L144 1-659).
T3 sequence: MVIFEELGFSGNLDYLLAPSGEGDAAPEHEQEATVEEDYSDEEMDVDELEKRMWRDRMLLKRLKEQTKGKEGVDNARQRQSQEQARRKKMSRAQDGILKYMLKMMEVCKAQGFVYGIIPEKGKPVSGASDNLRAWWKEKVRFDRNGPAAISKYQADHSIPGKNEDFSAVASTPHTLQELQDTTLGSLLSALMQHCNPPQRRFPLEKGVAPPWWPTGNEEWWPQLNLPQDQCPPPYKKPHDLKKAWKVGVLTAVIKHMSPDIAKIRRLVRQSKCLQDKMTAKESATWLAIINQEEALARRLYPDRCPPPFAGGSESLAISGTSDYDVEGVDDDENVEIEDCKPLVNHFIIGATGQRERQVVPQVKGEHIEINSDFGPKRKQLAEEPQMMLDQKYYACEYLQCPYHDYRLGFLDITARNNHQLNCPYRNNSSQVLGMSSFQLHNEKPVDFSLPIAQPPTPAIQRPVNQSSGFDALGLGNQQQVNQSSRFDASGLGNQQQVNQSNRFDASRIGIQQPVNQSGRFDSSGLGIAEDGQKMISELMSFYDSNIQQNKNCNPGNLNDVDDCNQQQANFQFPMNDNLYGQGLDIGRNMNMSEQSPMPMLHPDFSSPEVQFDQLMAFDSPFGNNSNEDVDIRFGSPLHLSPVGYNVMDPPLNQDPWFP
The description is as above. Particulars: protein: recombinant; tags: His (pET-32a fusion); label: biotin; blunt.

B1: MdUFGT promoter MBS probe (dsDNA)
DNA 1: GTCAAGTATGGTACAAACAACTGCAATAAAATATTGCCAC
DNA 2: GTGGCAATATTTTATTGCAGTTGTTTGTACCATACTTGAC
In the case of B1, in the data set with MdMYB17 [1], the binding result is “binds”.

B2: MdUFGT promoter MBS mutated (dsDNA)
DNA 1: GTCAAGTATGGTACAAACGACTACAATAAAATATTGCCAC
DNA 2: GTGGCAATATTTTATTGTAGTCGTTTGTACCATACTTGAC
Turning to B2, in the data set with MdMYB17 [2], the binding result is “no binding”.

B3: MdMYB1 promoter MBS probe (dsDNA)
DNA 1: AGACTGGTAGCTATTAACAACTGTTGGAATGTTTTAAACT
DNA 2: AGTTTAAAACATTCCAACAGTTGTTAATAGCTACCAGTCT
Take B3: the binding result with MdMYB17 [1] is given as “binds”.

B4: MdMYB1 promoter MBS mutated (dsDNA)
DNA 1: AGACTGGTAGCTATTAACGACTATTGGAATGTTTTAAACT
DNA 2: AGTTTAAAACATTCCAATAGTCGTTAATAGCTACCAGTCT
For the molecule B4, the binding result with MdMYB17 [2] is given as “no binding”.

B5: MdMYB17 promoter MBS3 probe (dsDNA)
DNA 1: AGATGTGTAGTTAAATTACCCAACTGTAAGTCAAGCGGAGTAGTCA
DNA 2: TGACTACTCCGCTTGACTTACAGTTGGGTAATTTAACTACACATCT
For B5, the binding result in the data set with MdMYB1 is “binds”.

B6: MdDFR promoter MBS probe (dsDNA)
DNA 1: AAACTCCCTAAATAAACCAGTTGTACTGGTGGATAGGCCT
DNA 2: AGGCCTATCCACCAGTACAACTGGTTTATTTAGGGAGTTT
For B6, in the data set with MdMYB17 [1], the binding result is “binds”.

B7: MdDFR promoter MBS mutated (dsDNA)
DNA 1: AAACTCCCTAAATAAACCGGTCGTACTGGTGGATAGGCCT
DNA 2: AGGCCTATCCACCAGTACGACCGGTTTATTTAGGGAGTTT
On to B7, for which the binding result in the data set with MdMYB17 [2] is reported as “no binding”.

B8: MdMYB17 promoter ATGTA1 probe (dsDNA)
DNA 1: TCAAATTAATTATAAATTAAATGTAACCATGACAAGGAAAGTGTC
DNA 2: GACACTTTCCTTGTCATGGTTACATTTAATTTATAATTAATTTGA
In the case of B8, in the data set with MdEIL1, the binding result is “binds”.

B9: MdEIL1 promoter MRE2 probe (dsDNA)
DNA 1: ATTGTTCTGTTTATTGTTTAGGTTAATCTGTTCTTATCTGC
DNA 2: GCAGATAAGAACAGATTAACCTAAACAATAAACAGAACAAT
B9: in the data set with MdMYB17 [1], the binding result is “binds”.
